Five molecules from US20240398993A1, “SMALL MOLECULE-REGULATED GENE EXPRESSION SYSTEM” (Outpace Bio, Inc., priority 2021, published 2024) can be followed below.

One experiment has as its system HEK293 cells. Description: Danoprevir-induced EGFP reporter expression in transduced HEK293 cells, flow cytometry. The experiment is classed as cell-based. (In general: In flow cytometry, cells or beads pass a laser one at a time.)
In a further experiment the test system is Jurkat cells. Description: Danoprevir-induced GFP/EGFP reporter expression in transduced Jurkat cells, flow cytometry. As to conditions: for induced GFP expression (gMFI): 500 nM danoprevir 24 hours, ZF DBD-NS3a / DNCR2-TAD panel, YB_TATA minimal promoter, FIG. 11. The experiment is classed as cell-based.
[1] abbreviates: titration of danoprevir, IPV16/TFV1 versus IPV16/TFV23, FIG. 18.

Entries after “also recorded” stand apart in the source; their conditions may differ.

With `CC(C)(C)OC(=O)N[C@H]1CCCCC/C=C\[C@@H]2C[C@@]2(C(=O)NS(=O)(=O)C2CC2)NC(=O)[C@@H]2C[C@@H](OC(=O)N3Cc4cccc(F)c4C3)CN2C1=O` [danoprevir, (2R,6S,12Z,13aS,14aR,16aS)-14a-[(Cyclopropylsulfonyl)carbamoyl]-6-({[(2-methyl-2-propanyl)oxy]carbonyl}amino)-5,16-dioxo-1,2,3,5,6,7,8,9,10,11,13a,14,14a,15,16,16a-hexadecahydrocyclopropa[e]pyrrolo[1,2-a][1,4]diazacyclopentadecin-2-yl 4-fluoro-1,3-dihydro-2H-isoindole-2-carboxylate, reference compound], in the experiment with HEK293 cells (setting [1]), the “danoprevir EC50 of EGFP expression” value is “equivalent” and the “maximal EGFP expression levels” value was “equivalent”.

B1: p65: transcriptional activation domain fused to DNCR2 (SEQ ID NO: 51) (protein)
chain: SSDEEEARELIERAKEAAERAQEAAERTGDPRVRELARELKRLAQEAAEEVKRDPSSSDVNEALKLIVEAIEAAVDALEAAERTGDPEVRELARELVRLAVEAAEEVQRNPSSSDVNEALHSIVYAIEAAIFALEAAERTGDPEVRELARELVRLAVEAAEEVQRNPSSRNVEHALMRIVLAIYLAEENLREAEESGDPEKREKARERVREAVERAEEVQRDPSGWLNHSGGGSGVDGSPKKKRKVGSVLPQAPAPAPAPAMVSALAQAPAPVPVLAPGPPQAVAPPAPKPTQAGEGTLSEALLQLQFDDEDLGALLGNSTDPAVFTDLASVDNSEFQQLLNQGIPVAPHTTEPMLMEYPEAITRLVTGAQRPPDPAPAPLGAPGLPNGLLSGDEDFSSIADMDFSALL
modifications: Synthetic polypeptide DNCR2-p65mini
B1: the “induced GFP expression (gMFI)” value in the experiment with Jurkat cells is “very weak”.

B2: ANR-SPOP: E3 ligase SPOP fused to the apo-NS3a reader ANR, SEQ ID NO: 157, expressed from IPV18 or TFV23 (protein)
chain: GELDELVYLLDGPGYDPIHSDVVTRGGSHLFNFSGSSGGSGVNISGQNTMNMVKVPECRLADELGGLWENSRFTDCCLCVAGQEFQAHKAILAARSPVFSAMFEHEMEESKKNRVEINDVEPEVFKEMMCFIYTGKAPNLDKMADDLLAAADKYALERLKVMCEDALCSNLSVENAAEILILADLHSADQLKTQAVDFINYHASDVLETSGWKSMVVSHPHLVAEAYRSLASAQCPFLGPPRKRLKQS
modifications: Synthetic polypeptide ANR-SPOP
Consider B2, for which the “maximal danoprevir-induced EGFP expression, element expressed inducibly from the inducible promoter vector” value in the experiment on HEK293 cells (100 nM danoprevir, HEK293 cells, plot 1725) is “reduced the maximal danoprevir-induced EGFP expression”. For the same molecule, in the experiment on HEK293 cells (100 nM danoprevir, HEK293 cells, plot 1730), the “danoprevir-induced EGFP expression, element expressed from the transcription factor vector” value is “maintaining high danoprevir-induced expression”. Besides, in the experiment with HEK293 cells (DMSO, IPV16/TFV23 versus IPV16/TFV1, plot 1800), the “background EGFP expression level, fold lower than the system without ANR-SPOP” value was “about 3 times”. Besides, in the experiment with HEK293 cells (HEK293 cells, compared to wild type cells, FIG. 16-18), the “background (leaky) EGFP expression, DMSO” value is “effectively removed any leaky background expression of EGFP; also recorded: indistinguishable from wild type HEK293 cells”.

B3: ZFHIV2: zinc finger DNA binding domain fused to NS3a (NS3a-ZFHIV2, SEQ ID NO: 71) (protein)
chain: KKKGSVVIVGRINLSGDTAYAQQTRGEEGCQETSQTGRDKNQVEGEVQIVSTATQTFLATSINGVLWTVYHGAGTRTIASPKGPVTQMYTNVDKDLVGWQAPQGSRSLTPCTCGSSDLYLVTRHADVIPVRRRGDSRGSLLSPRPISYLKGSAGGPLLCPAGHAVGIFRAAVSTRGVAKAVDFIPVESLETTMRSPGSGAAASGGGGSGGGGSGGTPPHERPFQCRICMRNFSNNAMLVRHTRTHTGEKPFQCRICMRNFSLSQTLQRHLRTHTGEKPFQCRICMRNFSMQGNLSRHLKTHLRGS
modifications: Synthetic polypeptide NS3a-ZFHIV2
In the case of B3, in the experiment with Jurkat cells, the “induced GFP expression (gMFI)” value is reported as “highest induced GFP levels”. For the same molecule, in the experiment with Jurkat cells (DNCR2-VPRmini, FIG. 12), the “induction of GFP expression (gMFI), 12×RE versus 6×RE” value is given as “lower induction”. Moreover, in the experiment on Jurkat cells (DNCR2-VPRmini, TFV19, TFV20, FIG. 12), the “induction of GFP expression (gMFI), leucine zipper (LZ) between NS3a and ZF versus direct fusion” value is “higher maximal induction”.

B4: p65-HSF1: transcriptional activation domain of all-human components fused to DNCR2 (SEQ ID NO: 52) (protein)
chain: SSDEEEARELIERAKEAAERAQEAAERTGDPRVRELARELKRLAQEAAEEVKRDPSSSDVNEALKLIVEAIEAAVDALEAAERTGDPEVRELARELVRLAVEAAEEVQRNPSSSDVNEALHSIVYAIEAAIFALEAAERTGDPEVRELARELVRLAVEAAEEVQRNPSSRNVEHALMRIVLAIYLAEENLREAEESGDPEKREKARERVREAVERAEEVQRDPSGWLNHSGGGSGVDGSPKKKRKVGSVLPQAPAPAPAPAMVSALAQAPAPVPVLAPGPPQAVAPPAPKPTQAGEGTLSEALLQLQFDDEDLGALLGNSTDPAVFTDLASVDNSEFQQLLNQGIPVAPHTTEPMLMEYPEAITRLVTGAQRPPDPAPAPLGAPGLPNGLLSGDEDFSSIADMDFSALLSGSGGFSVDTSALLDLFSPSVTVPDMSLPDLDSSLASIQELLSPQEPPRPPEAENSSPDSGKQLVHYTAQPLFLLDPGSVDTGSNDLPVLFELGEGSYFSEGDGFAEDPTISLLTGSEPPKAKDPTVS
modifications: Synthetic polypeptide DNCR2-p65mini-HSF1
For B4, the “induced GFP expression (gMFI)” value in the experiment with Jurkat cells was “moderate induction levels”.
